Source: patent publication US20200317817A1 (XOMA US, published 2020)
Positions count from the first letter of the chain named.

T1: mouse PTH1R overexpressed on CHO cells (mouse, UniProt P41593 27-591)
T1 sequence (looked up): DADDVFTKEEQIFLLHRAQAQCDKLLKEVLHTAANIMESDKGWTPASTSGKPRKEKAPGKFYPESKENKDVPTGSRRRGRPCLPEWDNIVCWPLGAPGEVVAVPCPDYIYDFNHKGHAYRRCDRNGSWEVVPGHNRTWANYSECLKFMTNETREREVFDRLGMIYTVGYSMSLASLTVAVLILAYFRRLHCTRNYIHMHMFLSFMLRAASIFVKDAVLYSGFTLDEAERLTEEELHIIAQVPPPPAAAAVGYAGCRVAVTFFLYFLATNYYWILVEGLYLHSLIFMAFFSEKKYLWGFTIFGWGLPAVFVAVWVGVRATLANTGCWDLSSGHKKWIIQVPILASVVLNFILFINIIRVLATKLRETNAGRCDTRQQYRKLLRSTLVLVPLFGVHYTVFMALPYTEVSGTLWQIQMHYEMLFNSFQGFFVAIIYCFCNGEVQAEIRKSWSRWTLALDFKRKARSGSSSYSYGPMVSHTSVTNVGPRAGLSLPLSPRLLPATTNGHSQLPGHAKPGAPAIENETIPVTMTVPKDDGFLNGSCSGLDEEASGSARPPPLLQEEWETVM

T2: human PTH1R overexpressed on CHO cells (human, UniProt Q03431 27-593)
T2 sequence (looked up): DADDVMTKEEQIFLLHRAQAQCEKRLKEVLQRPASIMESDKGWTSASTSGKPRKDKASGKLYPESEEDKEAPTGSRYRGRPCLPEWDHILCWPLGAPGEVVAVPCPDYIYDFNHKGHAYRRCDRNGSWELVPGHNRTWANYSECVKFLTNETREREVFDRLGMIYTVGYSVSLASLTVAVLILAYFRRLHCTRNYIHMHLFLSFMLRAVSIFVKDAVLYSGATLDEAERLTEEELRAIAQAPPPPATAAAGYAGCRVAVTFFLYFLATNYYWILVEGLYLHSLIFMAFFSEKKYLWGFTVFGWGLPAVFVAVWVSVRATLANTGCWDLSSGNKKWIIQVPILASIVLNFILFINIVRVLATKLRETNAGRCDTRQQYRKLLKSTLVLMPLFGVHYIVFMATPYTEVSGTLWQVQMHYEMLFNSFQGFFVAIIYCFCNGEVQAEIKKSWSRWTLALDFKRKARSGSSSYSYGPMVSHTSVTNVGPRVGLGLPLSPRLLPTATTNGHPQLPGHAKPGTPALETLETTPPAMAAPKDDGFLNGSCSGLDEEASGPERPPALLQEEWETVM

T3: human PTH1R on Saos-2 cells (endogenous) (human, UniProt Q03431 27-593)
T3 sequence (looked up): T2 sequence (looked up)

T4: rat PTH1R on UMR106 cells (rat, UniProt P25961 27-591)
T4 sequence (looked up): T1 sequence (looked up) with P58S, L497P, I518T, N520T, I523L, T528A

T5: recombinant N-terminal extracellular domain of the human PTH1R receptor (human, UniProt Q03431 27-188, limits assumed)
T5 construct: domain: N-terminal extracellular domain; Bought reagent; also called N-ECD PTH1R; PTH1R N-terminal ECD
T5 sequence (looked up): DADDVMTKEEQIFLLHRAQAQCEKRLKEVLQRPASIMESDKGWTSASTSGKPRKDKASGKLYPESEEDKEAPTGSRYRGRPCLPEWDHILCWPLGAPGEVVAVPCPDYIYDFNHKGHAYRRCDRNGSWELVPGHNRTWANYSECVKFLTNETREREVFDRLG

B1: XPA.85.345 (antibody, V domains shown)
VH: QMQLVQSGAEVKKPGSSVKVSCKASGGTFSSYAISWVRQAPGQGLEWMGGIIPIFGTANYAQKFQGRVTITADESTSTAYMELSSLRSEDTAVYYCARGYVVARLWGQGTLVTVSS
VL: ETTLTQSPAFMSASVGDRVTITCQASQDINNFLNWYQQKPGKAPKFLIYDASNLEKGVPSRFSGRGSGTEFTLTISSLQPEDIATYYCQQYRDFPLTFGQGTRLEIK
notes: Light-chain-shuffled variant of XPA.85.012
B2: XPA.85.331 (antibody, V domains shown)
VH: B1 VH
VL: DVVMTQSPLSLPVTPGEPASISCRSSQSLLHIDGFNYLQWYLQKPGQSPQLLVHLGSFRASGVPDRFSGSGSGTDFTLEISRVEAEDVGLYYCMQGLQTPPTFGPGTKVEIK
notes: as for B1
B3: XPA.85.347 (antibody, V domains shown)
VH: B1 VH
VL: DIVMTQTPLSLSVTPGQPASISCKSSQSLFHDHGRTHLSWYLQKPGQPPQLLIFEASNRFSGVPDRFSGSGSGTDFTLKISRVEAEDVGVYYCMQGIHLPPAFGGGTKLEIK
notes: as for B1
B4: XPA.85.346 (antibody, V domains shown)
VH: B1 VH
VL: DIVMTQTPLSLSVTPGQPASITCKSSQSLLHIDGKTYLYWFLQKPGQPPQLLIYEVSNRFSGVPDRFSGSGSGTDFTLKISRVEAEDVGLYYCMQSLHLPITFGQGTRLEIK
notes: as for B1
B5: XPA.85.288 (antibody, V domains shown)
VH: B1 VH
VL: B4 VL with I2V, T22S, F41Y, P45S, P48S, R66T, L90V, L99F
notes: also called Ab288
B6: XPA.85.327 (antibody, V domains shown)
VH: B1 VH
VL: B4 VL with K35N, F41Y, K44R, V56I, L90V, L99F
notes: Light-chain-shuffled variant of XPA.85.012; also called XPA.327
B7: XPA.85.342 (antibody, V domains shown)
VH: B1 VH
VL: B1 VL with A9T
notes: as for B1
B8: XPA.85.326 (antibody, V domains shown)
VH: B1 VH
VL: B4 VL with T22S, K35L, F41Y, N58H, P64S, R66K, K79T, L90V
notes: as for B1

Biological target: T1, mouse PTH1R overexpressed on CHO cells
Test: cell-based or functional assay

IC50, inhibition of PTHrP(1-34)-induced cAMP accumulation	Binder
2.53 nM	B1
3.2 nM	B2
2.9 nM	B3
3.57 nM	B4

Biological target: T2, human PTH1R overexpressed on CHO cells
Test: cell-based or functional assay

IC50, inhibition of PTH(1-34)-induced cAMP accumulation	IC50, inhibition of PTHrP(1-34)-induced cAMP accumulation	IC50, inhibition of PTH(1-34)-induced cAMP accumulation (curve does not reach a plateau)	Binder
14.2 nM	12.1 nM	–	B1
14.2 nM	8.86 nM	–	B2
–	14.6 nM	29.9 nM	B4

Biological target: T3, human PTH1R on Saos-2 cells (endogenous)
Test: cell-based or functional assay

fold shift of the PTH (1-34) dose response, M-CSF secretion by Saos-2 cells	Binder
> 10 fold	B2
> 10 fold	B5
> 10 fold	B4
> 10 fold	B6

Biological target: T4, rat PTH1R on UMR106 cells
Test: cell-based or functional assay

% inhibition of cAMP accumulation at 1 µM PTH(1-34), 267 nM IgG	% inhibition of cAMP accumulation at 1 µM PTHrP(1-34), 267 nM IgG	Binder
42%	37%	B2
73%	45%	B5
40%	31%	B4
6%	0%	B7

Biological target: T3, human PTH1R on Saos-2 cells (endogenous)
Test: cell-based or functional assay
Remark: another data set of the same source

% inhibition of cAMP accumulation at 1 µM PTH(1-34), 267 nM IgG	% inhibition of cAMP accumulation at 1 µM PTHrP(1-34), 267 nM IgG	Binder
67%	72%	B2
79%	79%	B5
72%	75%	B4
0%	17%	B7

Biological target: T5, recombinant N-terminal extracellular …
Test: SPR, IgG captured, ECD injected
Protocol: An anti-human IgG-Fc CMS sensor chip (GE Healthcare) was prepared using standard amine coupling as described by the manufacturer's protocol for the capture Ab on a BIACORE 4000 system (GE Healthcare). Briefly, the chip surface was activated with a 10 minute injection at 10 μL/minute of a freshly mixed 1:1 solution of 0.1 M N-Hydroxysuccinimide (NHS) and 0.4 M 1-Ethyl-3-(3-dimethylaminopropyl) carbodiimide hydrochloride (EDC). Following the activation injection, 15 ug/mL anti-human IgG-Fc antibody in acetate pH 4.5 was injected at 10 μL/minute for 10 minutes to achieve a high density capture surface. 7 minutes of 1M Ethanolamine hydrochloride-NaOH pH 8.5 was injected to block the surface. The NHS, EDC, and Ethanolamine used were from the BIACORE Amine Coupling Kit.
Kinetic Analysis was performed using HBS-EP+(Teknova) with 2.5 mg/mL BSA (Sigma Aldrich, St. Louis Mo.). Antibodies were diluted to 0.5 μg/mL and captured to achieve a surface density of 100 to 200 RU. […] Injections were performed at 30 μL/minute for 240 seconds with a 360 second dissociation time. Regeneration was then performed with one 60 second injection 3M MgCl.
The data were analyzed using BIACORE 4000 Evaluation Software and was double referenced by subtracting both the blank flow cell data and the averaged bracketing blank injections. The data was fit by simultaneously fitting the an off-rate (kd) and on-rate (kₐ), and calculating the KD as KD=kd/kₐ.

Kd	koff	kon	Binder
0.19 nM	7.3e-05 s⁻¹	380000 M⁻¹ s⁻¹	B8
0.56 nM	0.0013 s⁻¹	2.3e+06 M⁻¹ s⁻¹	B1
0.22 nM	0.00035 s⁻¹	1.6e+06 M⁻¹ s⁻¹	B2
0.87 nM	0.00077 s⁻¹	880000 M⁻¹ s⁻¹	B3
0.18 nM	0.00014 s⁻¹	780000 M⁻¹ s⁻¹	B5
0.31 nM	0.00014 s⁻¹	450000 M⁻¹ s⁻¹	B4
0.52 nM	0.0012 s⁻¹	2.3e+06 M⁻¹ s⁻¹	B7
0.15 nM	0.00011 s⁻¹	740000 M⁻¹ s⁻¹	B6
